Results on one substance are retold here after patent publication US20030027358A1.

The target in the assay is MHC Class I heavy chains (HLA-A, B and C molecules) on CB23, HSB2, MP-1, Jurkat, primary T cells, primary B cells and primary NK cells. The assay is described as follows: flow cytometry competition; W6/32 at 0, 2, 5 or 10 µg in 100 µL, competitor 5 µg P3G2/Fc.

Turning to “W6/32 (ATCC HB-95), an antibody against MHC Class I heavy chains”, the amount of W6/32 at which P3G2 binding was totally blocked amounted to 5 µg.
